B1: N{Epsilon-36}-[2-[2-[2-[[2-[2-[2-[[(4S)-4-carboxy-4-[[4-[(19-carboxynonadecanoylamino)methyl]cyclohexanecarbonyl]amino]butanoyl]amino]ethoxy]ethoxy]acetyl]amino … (peptide)
peptide: H[Aib]EGTFTSDVSSYLEEQAAREFIAWLVRGK([AEEA-AEEA-γGlu-Trx-C20 diacid])GAESPK([AEEA-AEEA-γGlu-Trx-C20 diacid])
notes: Double-acylated, C-terminally extended GLP-1 analogue made by SPPS; also called 14
B2: N{Epsilon-36}-[2-[2-[2-[[2-[2-[2-[[(4S)-4-carboxy-4-[[4-[(19-carboxynonadecanoylamino)methyl]cyclohexanecarbonyl]amino]butanoyl]amino]ethoxy]ethoxy]acetyl]amino … (peptide)
peptide: H[Aib]EGTFTSDVSSYLEEQAAREFIAWLVRGK([AEEA-AEEA-γGlu-Trx-C20 diacid])GPASEK([AEEA-AEEA-γGlu-Trx-C20 diacid])
notes: Double-acylated, C-terminally extended GLP-1 analogue made by SPPS; also called 15
B3: N{Alpha}([Aib8,Glu22,Arg26,Arg34]-GLP-1-(7-37)-peptidyl)-N{Epsilon}[4-[3-[2-[2-[3-[[(4S)-4-carboxy-4-[[1-(19-carboxynonadecanoyl)piperidine-4-carbonyl]amino]but … (peptide)
peptide: H[Aib]EGTFTSDVSSYLEEQAAREFIAWLVRGRGK([TtdSuc-γGlu-Inp-C20 diacid])GGSK([TtdSuc-γGlu-Inp-C20 diacid])
notes: Double-acylated, C-terminally extended GLP-1 analogue made by SPPS; also called 21
B4: N{Alpha}([Imp … (peptide)
peptide: [Desaminohistidyl][Aib]EGTFTSDVSSYLEEQAAREFIAWLVRGRGK([AEEA-AEEA-AEEA-AEEA-γGlu-C20 diacid])GGSK([AEEA-AEEA-AEEA-AEEA-γGlu-C20 diacid])
notes: Double-acylated, C-terminally extended GLP-1 analogue made by SPPS; also called 20
B5: N{Alpha}([Aib8,Glu22,Arg26,Arg34]-GLP-1-(7-37)-peptidyl)-N{Epsilon}[2-[2-[2-[[2-[2-[2-[[(4S)-4-carboxy-4-[[4-[(19-carboxynonadecanoylamino)methyl]cyclohexanecar … (peptide)
peptide: H[Aib]EGTFTSDVSSYLEEQAAREFIAWLVRGRGK([AEEA-AEEA-γGlu-Trx-C20 diacid])GGSK([AEEA-AEEA-γGlu-Trx-C20 diacid])
notes: Double-acylated, C-terminally extended GLP-1 analogue made by SPPS
B6: N{Epsilon-27}-[2-[2-[2-[[2-[2-[2-[[(4S)-4-carboxy-4-[[4-[(19-carboxynonadecanoylamino)methyl]cyclohexanecarbonyl]amino]butanoyl]amino]ethoxy]ethoxy]acetyl]amino … (peptide)
peptide: H[Aib]EGTFTSDVSSYLEEQAARK([AEEA-AEEA-γGlu-Trx-C20 diacid])FIAWLVRGRGGGGSK([AEEA-AEEA-γGlu-Trx-C20 diacid])
notes: as for B5
B7: N{Alpha}([Aib8,Glu22,Arg26,Arg34]-GLP-1-(7-37)-peptidyl)-N{Epsilon}[2-[2-[2-[[2-[2-[2-[[(4S)-4-carboxy-4-[[4-[(19-carboxynonadecanoylamino)methyl]cyclohexanecar … (peptide)
peptide: H[Aib]EGTFTSDVSSYLEEQAAREFIAWLVRGRGK([AEEA-AEEA-γGlu-Trx-C20 diacid])SAEK([AEEA-AEEA-γGlu-Trx-C20 diacid])
notes: Double-acylated, C-terminally extended GLP-1 analogue made by SPPS; also called 13
B8: N{Epsilon-31}-[2-[2-[2-[[2-[2-[2-[[(4S)-4-carboxy-4-[[4-[(19-carboxynonadecanoylamino)methyl]cyclohexanecarbonyl]amino]butanoyl]amino]ethoxy]ethoxy]acetyl]amino … (peptide)
peptide: H[Aib]EGTFTSDVSSYLEEQAAREFIAK([AEEA-AEEA-γGlu-Trx-C20 diacid])LVRGRGGGGSK([AEEA-AEEA-γGlu-Trx-C20 diacid])
notes: as for B5
B9: N{Epsilon-27}-[(2S)-2-amino-6-[[(2S)-2-amino-6-[[(4S)-4-carboxy-4-(19-carboxynonadecanoylamino)butanoyl]amino]hexanoyl]amino]hexanoyl]-[Aib8,Glu22,Arg26,Lys27,A … (peptide)
peptide: H[Aib]EGTFTSDVSSYLEEQAARKFIAWLVRGRGGGGSK
modifications: not fully specified (residues 21, 36)
notes: Double-acylated, C-terminally extended GLP-1 analogue made by SPPS; The printed name has a typographic slip ('R2S)' for '[(2S)')
B10: N{Alpha}([Aib8,Glu22,Arg26,Arg34]-GLP-1-(7-37)-peptidyl)-N{Epsilon}[2-[2-[2-[[2-[2-[2-[[(4S)-4-carboxy-4-[[4-[(19-carboxynonadecanoylamino)methyl]cyclohexanecar … (peptide)
peptide: H[Aib]EGTFTSDVSSYLEEQAAREFIAWLVRGRGK([AEEA-AEEA-γGlu-Trx-C20 diacid])SPEK([AEEA-AEEA-γGlu-Trx-C20 diacid])
notes: Double-acylated, C-terminally extended GLP-1 analogue made by SPPS; also called 11
B11: N{Alpha}([Aib8,Glu22,Arg26,Arg34]-GLP-1-(7-37)-peptidyl)-N{Epsilon}[2-[2-[2-[[2-[2-[2-[[(4S)-4-carboxy-4-[[4-[(19-carboxynonadecanoylamino)methyl]cyclohexanecar … (peptide)
peptide: H[Aib]EGTFTSDVSSYLEEQAAREFIAWLVRGRGK([AEEA-AEEA-γGlu-Trx-C20 diacid])PEGK([AEEA-AEEA-γGlu-Trx-C20 diacid])
notes: Double-acylated, C-terminally extended GLP-1 analogue made by SPPS; also called 12
B12: N{Epsilon-18}-[2-[2-[2-[[2-[2-[2-[[(4S)-4-carboxy-4-[[4-[(19-carboxynonadecanoylamino)methyl]cyclohexanecarbonyl]amino]butanoyl]amino]ethoxy]ethoxy]acetyl]amino … (peptide)
peptide: H[Aib]EGTFTSDVSK([AEEA-AEEA-γGlu-Trx-C20 diacid])YLEEQAAREFIAWLVRGRGGGGSK([AEEA-AEEA-γGlu-Trx-C20 diacid])
notes: as for B5

Numbered stars: 1 amine (or outer) side, 2 acyl side, 3 side chain; on linkers, the order of the positions; unused ones are H or OH. Square brackets hold non-standard residues; d marks the D form. Side chains are listed from the residue outwards. Ends that are not written are not given here. * marks the point of attachment. TtdSuc = 4-[3-[2-[2-(3-aminopropoxy)ethoxy]ethoxy]propylamino]-4-oxobutanoyl; C20 diacid = O=C(O)CCCCCCCCCCCCCCCCCCC(=O)*; γGlu = O=C(O)[C@H](CCC(=O)[*:2])N[*:1]; Desaminohistidyl = O=C(CCc1c[nH]cn1)*; Trx = NC[C@H]1CC[C@H](C(=O)O)CC1; AEEA = NCCOCCOCC(=O)O; Aib = CC(C)(N)C(=O)O; Inp = O=C(O)C1CCNCC1

The first assay addresses T1, human GLP-1 receptor (human, UniProt P43220 24-463).
T1 construct: whole, on cells
Description: competitive binding (SPA): displacement of 125I-GLP-1(7-36)NH2 from BHK cell membranes with human GLP-1 receptor; low HSA (max. 0.001% final). A general note: Displacement assays read how much labelled ligand stays bound in the presence of the test substance.
Description: (§1) For the receptor binding assay in the presence of low HSA (0.005%) 50 μl of the assay buffer was added to each well of an assay plate. […] For the receptor binding assay in the presence of high HSA (2%) 50 μl of the 8% albumin stock was added to each well of an assay plate. […] Cell membrane aliquots were thawed and diluted to their working concentration. Fifty μl were added to each well in the assay plate. […] WGA SPA beads were suspended in assay buffer at 20 mg/ml. The suspension was diluted to 10 mg/ml in assay buffer just prior to addition to the assay plate. Fifty μl were added to each well in the assay plate. […] A 25 μl aliquot was reserved for measuring total counts/well. […] The assay plate was incubated for 2 h at 30° C. […] The assay plate was centrifuged for 10 min. […] The assay plate was read in a Packard TopCount NXT instrument.
As a reminder, the IC50 is the concentration at which inhibition is half-maximal. A higher IC50 goes with a need for much substance. The molecule B1 showed an IC50 of 1.5 nM.

Consider B2, for which the IC50 worked out at 1.6 nM.

In turn, B3 returned an IC50 of 1.3 nM.

On to B4, for which the IC50 stood at 4.1 nM.

B5 displayed an IC50 of 1.2 nM.

B6: the IC50 worked out at 0.75 nM.

Consider B7, for which the half-maximal inhibitory concentration (IC50) turned out to be 1.4 nM.

B8 showed an IC50 of 1.4 nM.

As for B9, the IC50 is 0.43 nM.

B10: the IC50 was 1.5 nM.

For the molecule B11, the IC50 came to 1.4 nM.

As to B12, the IC50 was found to be 1 nM.

A further assay concerns the target T1, human GLP-1 receptor. The assay can be described thus: cell-based or functional assay.
For B1, the “EC50 (pM), in vitro potency, CRE luciferase reporter gene assay in BHK cells expressing the human GLP-1 receptor” value (from here on “EC50 (pM), in vitro potency”) is 22 pM.

On to B2, for which the “EC50 (pM), in vitro potency” value came to 20 pM.

With B3, the “EC50 (pM), in vitro potency” value was 19 pM.

Turning to B4, the “EC50 (pM), in vitro potency” value was 8.4 pM.

With B5, the “EC50 (pM), in vitro potency” value was 43 pM.

Take B6: the “EC50 (pM), in vitro potency” value worked out at 55 pM.

B7: the “EC50 (pM), in vitro potency” value is 24 pM.

Turning to B8, the “EC50 (pM), in vitro potency” value is 36 pM.

On to B9, for which the “EC50 (pM), in vitro potency” value is 260 pM.

Turning to B10, the “EC50 (pM), in vitro potency” value was determined as 27 pM.

With B11, the “EC50 (pM), in vitro potency” value came out at 24 pM.

With B12, the “EC50 (pM), in vitro potency” value was found to be 93 pM.

The target of a further assay is T1, human GLP-1 receptor. Description: competitive binding (SPA): displacement of 125I-GLP-1(7-36)NH2 from BHK cell membranes with human GLP-1 receptor; high HSA (2.0% final).
Description: as §1
B1: the IC50 was 530 nM.

The molecule B2 displayed an IC50 of 928 nM.

The molecule B3 showed an IC50 of 177 nM.

In turn, B4 displayed an IC50 of 270 nM.

Consider B5, for which the IC50 was determined as 185 nM.

In turn, B6 came in with a concentration for half-maximal inhibition (IC50) of 275 nM.

B7: the concentration for half-maximal inhibition (IC50) is 160 nM.

Molecule B8 had an IC50 of no less than 1000 nM.

The molecule B9 returned an IC50 of 383 nM.

B10 returned an IC50 of 116 nM.

As for B11, the IC50 was 212 nM.

B12 returned a concentration for half-maximal inhibition (IC50) of no less than 1000 nM.

Source of the values: patent publication US20150011462A1 (Novo Nordisk, published 2015).
